Here are results for 4 molecules from paper doi:10.1101/2024.04.24.590896 (bioRxiv, 2024).

Sequences and labels used below:
B1: Use1 SNARE domain (aa 174-239) (domain or fragment)
chain: QRHQGLQEKLAEEMLGLARSLKTNTLAAQSVIKKDNQTLSHSLKMADQNLEKLKLESERLEQHAQK
B2: U_SNAP (Sec20, aa 133-198; Use1, aa 174-239) (other)
chain: QTSSSITESLMGISRMMSQQVQQSEEAMQTLVSSSRTLLDANEEFKSMSGTIQLGRKLITKYNRREGLSVSPSNKLKSSDAYKKAWGNNQDGVVASQPARVVDEREQMAISGGFIRRVTNDQRHQGLQEKLAEEMLGLARSLKTNTLAAQSVIKKDNQTLSHSLKMADQNLEKLKLESERLEQHAQK
B3: Sec20 SNARE domain (aa 133-198) (domain or fragment)
chain: QTSSSITESLMGISRMMSQQVQQSEEAMQTLVSSSRTLLDANEEFKSMSGTIQLGRKLITKYNRRE
B4: syntaxin 18 SNARE domain (aa 229-312) (domain or fragment)
chain: EEIQMFEQENQRLIGEMNSLFDEVRQIEGKVVEISRLQEIFTEKVLQQETEIDSIHQLVVGATENIKEGNEDIREAIKNNAGFR

In assay [1] the target is B4. Nature of the assay: SEC.
In assay [2] the target is B3. Briefly: SEC. A general note: Size exclusion chromatography separates by hydrodynamic size, large species first.
Assay [3] addresses B4. Nature of the assay: native gel or EMSA + SEC.
Assay [4] concerns the target synaptobrevin 2 (aa 1-96) (Rattus norvegicus, UniProt P63045 1-96). Nature of the assay: native gel or EMSA. On the technique in general: Mobility shift assays separate free from complexed probe on a gel.

Chain of synaptobrevin 2 (aa 1-96) (P63045 1-96): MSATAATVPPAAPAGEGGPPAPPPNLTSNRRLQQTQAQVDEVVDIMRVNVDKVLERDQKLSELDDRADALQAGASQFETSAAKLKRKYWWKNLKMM

For the molecule B1, the binding result in assay [1] and in assay [2] was “binds” in each case.
As to B2, in assay [3], the binding result is listed as “binds”.
For B3, the binding result in assay [1] is on record as “binds”.
Take B4: the binding result in assay [4] is “binds”.
